From patent US20230233607A1 (University of California, published 2023)

Columns and labels:
LexA-CIB1 (No biLINuS) = assay: cell-based or functional assay
LexA-CIB1-biLINuS = molecular target: T1, LexA-CIB1-biLINuS; assay: cell-based or functional assay
T1 chain: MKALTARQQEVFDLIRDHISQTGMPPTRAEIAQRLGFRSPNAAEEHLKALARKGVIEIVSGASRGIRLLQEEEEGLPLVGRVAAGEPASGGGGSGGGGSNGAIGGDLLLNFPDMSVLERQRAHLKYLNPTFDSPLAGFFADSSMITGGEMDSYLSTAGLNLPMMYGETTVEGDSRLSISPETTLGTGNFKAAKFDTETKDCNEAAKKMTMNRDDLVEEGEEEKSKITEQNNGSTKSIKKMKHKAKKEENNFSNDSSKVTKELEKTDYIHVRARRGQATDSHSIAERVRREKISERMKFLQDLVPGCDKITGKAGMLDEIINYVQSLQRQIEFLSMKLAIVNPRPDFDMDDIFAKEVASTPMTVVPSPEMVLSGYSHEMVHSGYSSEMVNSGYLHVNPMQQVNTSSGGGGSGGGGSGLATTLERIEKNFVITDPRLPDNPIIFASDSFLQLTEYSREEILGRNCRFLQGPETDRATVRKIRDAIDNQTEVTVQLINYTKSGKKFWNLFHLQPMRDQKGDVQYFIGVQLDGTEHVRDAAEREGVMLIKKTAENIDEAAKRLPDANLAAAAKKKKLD

B1: CRY2PHR-VPR (other)
chain: MKMDKKTIVWFRRDLRIEDNPALAAAAHEGSVFPVFIWCPEEEGQFYPGRASRWWMKQSLAHLSQSLKALGSDLTLIKTHNTISAILDCIRVTGATKVVFNHLYDPVSLVRDHTVKEKLVERGISVQSYNGDLLYEPWEIYCEKGKPFTSFNSYWKKCLDMSIESVMLPPPWRLMPITAAAEAIWACSIEELGLENEAEKPSNALLTRAWSPGWSNADKLLNEFIEKQLIDYAKNSKKVVGNSTSLLSPYLHFGEISVRHVFQCARMKQIIWARDKNSEGEESADLFLRGIGLREYSRYICFNFPFTHEQSLLSHLRFFPWDADVDKFKAWRQGRTGYPLVDAGMRELWATGWMHNRIRVIVSSFAVKFLLLPWKWGMKYFWDTLLDADLECDILGWQYISGSIPDGHELDRLDNPALQGAKYDPEGEYIRQWLPELARLPTEWIHHPWDAPLTVLKASGVELGTNYAKPIVDIDTARELLAKAISRTREAQIMIGAAPASPKKKRKVEASSPGIRRLDALISTSLYKKAGYKEASGSGRADALDDFDLDMLGSDALDDFDLDMLGSDALDDFDLDMLGSDALDDFDLDMLINSRSSGSPKKKRKVGSQYLPDTDDRHRIEEKRKRTYETFKSIMKKSPFSGPTDPRPPPRRIAVPSRSSASVPKPAPQPYPFTSSLSTINYDEFPTMVFPSGQISQASALAPAPPQVLPQAPAPAPAPAMVSALAQAPAPVPVLAPGPPQAVAPPAPKPTQAGEGTLSEALLQLQFDDEDLGALLGNSTDPAVFTDLASVDNSEFQQLLNQGIPVAPHTTEPMLMEYPEAITRLVTGAQRPPDPAPAPLGAPGLPNGLLSGDEDFSSIADMDFSALLGSGSGSRDSREGMFLPKPEAGSAISDVFEGREVCQPKRIRPFHPPGSPWANRPLPASLAPTPTGPVHEPVGSLTPAPVPQPLDPAPAVTPEASHLLEDPDEETSQAVKALREMADTVIPQKEEAAICGQMDLSHPPPRGHLDELTTTLESMTEDLNLDSPLTPELNEILDTFLNDECLLHAMHISTGLSIFDTSLF
induction of Fluc activity normalized by Rluc upon light stimulation compared to the dark control (HEK 293T) (LexA-CIB1 (No biLINuS)): 68 fold | increase of Fluc signal in the light-stimulated group comparing to the dark group (Jurkat cells) (LexA-CIB1-biLINuS): > 1000 fold | induction of Fluc activity normalized by Rluc upon light stimulation compared to the dark control (HEK 293T) (LexA-CIB1-biLINuS): 133 fold | mean cellular fluorescence intensity of mNeonGreen reporter, dark group, compared to the non-transfected cells (HEK 293T) (LexA-CIB1-biLINuS): 1.7 fold | mean cellular fluorescence intensity of mNeonGreen reporter, light group, compared to the non-transfected cells (HEK 293T) (LexA-CIB1-biLINuS): 61 fold
